Key:
allogeneic CD4+ T cells = experiment: Mixed Lymphocyte Reaction (MLR), IFN-gamma; assay type: cell-based, human; conditions: Table E32; variant ECD-Fc in MLR assay; culture supernatant
Experimental: Soluble rCD80.Fc bioactivity was tested in a human Mixed Lymphocyte Reaction (MLR). Human primary dendritic cells (DC) were generated by culturing monocytes isolated from PBMC (BenTech Bio, USA) in vitro for 7 days with 500U/ml rIL-4 (R&D Systems, USA) and 250 U/ml rGM-CSF (R&D Systems, USA) in Ex-Vivo 15 media (Lonza, Switzerland). 10,000 matured DC and 100,000 purified allogeneic CD4+ T cells (BenTech Bio, USA) were co-cultured with variant CD80 Fc fusion proteins and controls in 96 well round bottom plates in 200 μl final volume of Ex-Vivo 15 media. On day 5, IFN-gamma secretion in culture supernatants was analyzed using the Human IFN-gamma Duoset ELISA kit (R&D Systems, USA). Optical density was measured by VMax ELISA Microplate Reader (Molecular Devices, USA) and quantitated against titrated rIFN-gamma standard included in the IFN-gamma Duo-set kit (R&D Systems, USA).

human pan T cells = experiment: Anti-CD3 coimmobilization assay, IFN-gamma; assay type: cell-based; conditions: Table E32; variant ECD-Fc coimmobilized with anti-CD3; culture supernatant
Outline: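 IFN-gamma in 3-day culture supernatants, quantified by ELISA, reflects costimulation. Human pan T cells or BC3 clone (100,000/well, Ex-Vivo 15) were placed on wells pre-adsorbed overnight with rCD80.Fc variants (1–80 nM) together with anti-CD3 OKT3 (1 nM or 4 nM), unbound protein removed.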

| Molecule | MLR IFN-gamma levels (allogeneic CD4+ T cells) | Coimmobilization with anti CD3 IFN-gamma (human pan T cells) |
| --- | --- | --- |
| L70Q/A91G/E117G/I118V/T120S/T130A (protein, CD80 v128 ECD) VIHVTKEVKEVATLSCGHNVSVEELAQTRIYWQKEKKMVLTMMSGDMNIWPEYKNRTIFDITNNLSIVIQALRPSDEGTYECVVLKYEKDGFKREHLAEVTLSVKADFPTPSISDFGVPSSNIRRIICSASGGFPEPHLSWLENGEELNAINTTVSQDPETELYAVSSKLDFNMTTNHSFMCLIKYGHLRVNQTFNWNTTKQEHFPDN | 736 pg/mL | 98 pg/mL |
| A91G/T120S/I118V/T130A (protein) VIHVTKEVKEVATLSCGHNVSVEELAQTRIYWQKEKKMVLTMMSGDMNIWPEYKNRTIFDITNNLSIVILALRPSDEGTYECVVLKYEKDGFKREHLAEVTLSVKADFPTPSISDFEVPSSNIRRIICSASGGFPEPHLSWLENGEELNAINTTVSQDPETELYAVSSKLDFNMTTNHSFMCLIKYGHLRVNQTFNWNTTKQEHFPDN | 714 pg/mL | 276 pg/mL |
| N63S/L70Q/A91G/S114T/I118V/T120S/T130A (protein, CD80 v133 ECD) VIHVTKEVKEVATLSCGHNVSVEELAQTRIYWQKEKKMVLTMMSGDMNIWPEYKNRTIFDITSNLSIVIQALRPSDEGTYECVVLKYEKDGFKREHLAEVTLSVKADFPTPSITDFEVPSSNIRRIICSASGGFPEPHLSWLENGEELNAINTTVSQDPETELYAVSSKLDFNMTTNHSFMCLIKYGDLRVNQTFNWNTTKQEHFPDN | 705 pg/mL | 116 pg/mL |
| L70Q/E81A/A91G/I118V/T120S/I127T/T130A (protein, CD80 v131 ECD) VIHVTKEVKEVATLSCGHNVSVEELAQTRIYWQKEKKMVLTMMSGDMNIWPEYKNRTIFDITNNLSIVIQALRPSDEGTYACVVLKYEKDGFKREHLAEVTLSVKADFPTPSISDFEVPSSNIRRITCSASGGFPEPHLSWLENGEELNAINTTVSQDPETELYAVSSKLDFNMTTNHSFMCLIKYGHLRVNQTFNWNTTKQEHFPDN | 772 pg/mL | 98 pg/mL |
| L70R/A91G/I118V/T120S/T130A/T199S (protein, CD80 v130 ECD) VIHVTKEVKEVATLSCGHNVSVEELAQTRIYWQKEKKMVLTMMSGDMNIWPEYKNRTIFDITNNLSIVIRALRPSDEGTYECVVLKYEKDGFKREHLAEVTLSVKADFPTPSISDFEVPSSNIRRIICSASGGFPEPHLSWLENGEELNAINTTVSQDPETELYAVSSKLDFNMTTNHSFMCLIKYGHLRVNQTFNWNSTKQEHFPDN | 702 pg/mL | 105 pg/mL |
| L70Q/Y87N/A91G/T130A (protein, CD80 v12 ECD) VIHVTKEVKEVATLSCGHNVSVEELAQTRIYWQKEKKMVLTMMSGDMNIWPEYKNRTIFDITNNLSIVIQALRPSDEGTYECVVLKNEKDGFKREHLAEVTLSVKADFPTPSISDFEIPTSNIRRIICSASGGFPEPHLSWLENGEELNAINTTVSQDPETELYAVSSKLDFNMTTNHSFMCLIKYGHLRVNQTFNWNTTKQEHFPDN | 769 pg/mL | 136 pg/mL |
| T28S/L70Q/A91G/E95K/I118V/T120S/I126V/T130A/K169E (protein, UniProt P33681 35-288, looked up, variant T28S L70Q A91G E95K I118V T120S I126V T130A K169E) T-lymphocyte activation …: VIHVTKEVKEVATLSCGHNVSVEELAQSRIYWQKEKKMVLTMMSGDMNIWPEYKNRTIFDITNNLSIVIQALRPSDEGTYECVVLKYEKDGFKRKHLAEVTLSVKADFPTPSISDFEVPSSNIRRVICSASGGFPEPHLSWLENGEELNAINTTVSQDPETELYAVSSELDFNMTTNHSFMCLIKYGHLRVNQTFNWNTTKQEHFPDNLLPSWAITLISVNGIFVICCLTYCFAPRCRERRRNERLRRESVRPV | 834 pg/mL | 120 pg/mL |

— patent US20220177587A1, “METHODS AND USES OF VARIANT CD80 FUSION PROTEINS AND RELATED CONSTRUCTS” (Alpine Immune Sciences, Inc., priority 2018, published 2022)
